For this experiment, the target named is porcine dentin sialoprotein (DSP) (porcine). The experiment is described as follows: SDS-PAGE and Western blot under oxidizing.

Among the data in PMC2821091 are stoichiometry N values, retold here.

Take “porcine dentin sialoprotein (DSP) (natural protein)”: the stoichiometry N worked out at 2.

A word on the stoichiometry N: it is a count of units in the complex or per binding partner.
